The target of experiment [1] is TSHR with Trp258 mutated to Ala, expressed in CHO cells (human) (UniProt P16473). The experiment can be described thus: cell-based or functional assay.
Experiment [2] deals with wild type TSHR (human TSH receptor) expressed in CHO cells (human) (UniProt P16473). The experiment can be described thus: cell-based or functional assay.
Experiment [3] has as its target human TSH receptor (full length) coated on ELISA plate wells (human) (UniProt P16473). The experiment can be described thus: TSH-biotin binding inhibition ELISA, TSHR coated wells; 1 µg/mL in assay buffer + 100 µg/mL 5B3 IgG; negative control MAb. Background: An ELISA detects its analyte on a solid surface through an enzyme-linked reagent.
Experiment [4] addresses TSHR (full length) coated on tubes (human) (UniProt P16473). The experiment can be described thus: inhibition of 125I-K1-18 Fab (competitor) binding to TSHR coated tubes; negative control 0.1 µg/mL in assay buffer.
Experiment [5] concerns the target TSH receptor (TSHR) coated on tubes (human) (UniProt P16473). The experiment can be described thus: inhibition of 125I-K1-70 IgG binding to TSHR coated tubes; negative control 1 µg/mL in assay buffer.
The target of experiment [6] is human TSH receptor (full length) coated on ELISA plate wells (human) (UniProt P16473). The experiment can be described thus: TSH-biotin binding inhibition ELISA, TSHR coated wells; 10 µg/mL in HBD serum pool; negative control MAb.
Experiment [7] concerns the target TSHR (full length) coated on tubes (human) (UniProt P16473). The experiment can be described thus: inhibition of 125I-K1-18 Fab (competitor) binding to TSHR coated tubes; negative control 0.01 µg/mL in HBD serum.
The target of experiment [8] is TSHR (thyroid stimulating hormone receptor), full length human (human) (UniProt P16473). The experiment can be described thus: negative control; competitor ^125I-K1-70 IgG, TSHR coated tubes; 10 µg/mL in HBD.
For experiment [9], the target named is human thyroid stimulating hormone receptor (TSHR), full length (human) (UniProt P16473). The experiment can be described thus: 125I-K1-70 Fab (competitor) binding to TSHR coated tubes; negative control MAb 1 µg/mL in HBD serum.
Experiment [10] deals with TSH receptor (TSHR), full length human, coated on tubes (human) (UniProt P16473). The experiment can be described thus: inhibition of 125I-K1-18 IgG binding to TSHR coated tubes; competitor 125I-K1-18 IgG; negative control sample at 0.1 µg/mL in HBD serum.
Experiment [11] concerns the target TSH receptor (full length human TSHR) (human) (UniProt P16473). The experiment can be described thus: competition ELISA: inhibition of M22 Fab-peroxidase (competitor) binding to TSHR coated wells; negative control at 1 µg/mL diluted in assay buffer.
The target of experiment [12] is human TSH receptor (full length) coated on ELISA plate wells (human) (UniProt P16473). The experiment can be described thus: TSH-biotin binding inhibition ELISA, TSHR coated wells; 0.003 µg/mL in assay buffer + 100 µg/mL 5B3 IgG.
In experiment [13] the target is TSH receptor (TSHR), full length human, coated on tubes (human) (UniProt P16473). The experiment can be described thus: inhibition of 125I-K1-18 IgG binding to TSHR coated tubes; competitor 125I-K1-18 IgG; sample at 10 µg/mL in assay buffer.
The target of experiment [14] is TSHR (thyroid stimulating hormone receptor), full length human (human) (UniProt P16473). The experiment can be described thus: competitor ^125I-K1-70 IgG, TSHR coated tubes; 0.1 µg/mL in assay buffer.
In experiment [15] the target is TSH receptor (full length human TSHR) (human) (UniProt P16473). The experiment can be described thus: competition ELISA: inhibition of M22 Fab-peroxidase (competitor) binding to TSHR coated wells; test sample at 1 µg/mL diluted in HBD serum pool.
For experiment [16] the target is unchanged. The experiment can be described thus: competition ELISA: inhibition of M22 Fab-peroxidase (competitor) binding to TSHR coated wells; test sample at 10 µg/mL diluted in HBD serum pool.
Experiment [17] concerns the target TSHR (full length) coated on tubes (human) (UniProt P16473). The experiment can be described thus: inhibition of 125I-K1-18 Fab (competitor) binding to TSHR coated tubes; test sample 0.1 µg/mL in HBD serum.
The target of experiment [18] is TSH receptor (TSHR), full length human, coated on tubes (human) (UniProt P16473). The experiment can be described thus: inhibition of 125I-TSH binding to TSHR coated tubes; 0.001 µg/mL, diluted in HBD serum pool.
Experiment [19] shares this target. The experiment can be described thus: inhibition of 125I-TSH binding to TSHR coated tubes; 10 µg/mL, diluted in assay buffer.
The target of experiment [20] is thyroid stimulating hormone receptor (full length human TSHR) (human) (UniProt P16473). The experiment can be described thus: ELISA: inhibition of M22 Fab-peroxidase (competitor) binding to TSHR coated wells; 0.01 µg/mL, diluted in assay buffer.
The target is the same in experiment [21]. The experiment can be described thus: ELISA, inhibition of TSH-biotin binding to TSHR coated wells; 0.01 µg/mL, diluted in HBD serum pool.
The target of experiment [22] is human thyroid stimulating hormone receptor (TSHR), full length (human) (UniProt P16473). The experiment can be described thus: 125I-K1-18 Fab competition, TSHR coated tubes; 10 µg/mL in HBD.
Experiment [23] has as its target human TSH receptor (full length) coated on ELISA plate wells (human) (UniProt P16473). The experiment can be described thus: TSH-biotin binding inhibition ELISA, TSHR coated wells; 10 µg/mL in assay buffer + 100 µg/mL 5B3 IgG.
The target in experiment [24] is TSH receptor (TSHR), full length human, coated on tubes (human) (UniProt P16473). The experiment can be described thus: inhibition of 125I-TSH binding to TSHR coated tubes; 0.1 µg/mL, diluted in assay buffer.
In experiment [25] the target is thyroid stimulating hormone receptor (full length human TSHR) (human) (UniProt P16473). The experiment can be described thus: ELISA, inhibition of TSH-biotin binding to TSHR coated wells; 1 µg/mL, diluted in HBD serum pool.
For experiment [26], the target named is TSH receptor (TSHR), full length human, coated on tubes (human) (UniProt P16473). The experiment can be described thus: inhibition of 125I-K1-18 IgG (competitor) binding to TSHR coated tubes; test sample at 10 µg/mL in assay buffer.

In the case of 5B3 IgG (antibody), in experiment [1], the % inhibition of TSH stimulation; 5B3 10 µg/mL amounted to 15%. This molecule yielded a % inhibition of TSH stimulation; 5B3 100 µg/mL in [1] of 4%. For the same molecule, the Cyclic AMP produced; 5B3 10 µg/mL + TSH 3 ng/mL in experiment [1] was 50.7 pmol/mL; in experiment [2] it was 67.7 pmol/mL. For the same molecule, the Cyclic AMP produced; 5B3 100 µg/mL + TSH 3 ng/mL in experiment [1] was determined as 57.6 pmol/mL; in [2], 72.8 pmol/mL. For the same molecule, the Mutated/wild type (%) of cyclic AMP produced; 5B3 10 µg/mL + TSH 3 ng/mL in experiment [1] was found to be 75%. For the same molecule, in experiment [1], the Mutated/wild type (%) of cyclic AMP produced; 5B3 100 µg/mL + TSH 3 ng/mL came out at 79%. In addition, the % inhibition of TSH-biotin binding was -4.8% in experiment [3] and 11.6% in experiment [6]. Also, the Inhibition of binding (%) in experiment [4] is -3.6%; in experiment [5], -2.6%; in experiment [7], -8.6%; in experiment [8], -1.5%; in experiment [9] it was -7.8%; in experiment [10], -7.8%. Moreover, the Inhibition of binding (%) in experiment [11] worked out at 3.4%.
As to M22 IgG (antibody), the % inhibition of TSH-biotin binding in experiment [12] was -0.5%.
For 9D33 IgG (antibody), the Inhibition of binding (%) came out at 63.2% in experiment [13]; 24.8% in experiment [14]; 57.8% in [15]; 66.7% in experiment [16]; 32.2% in experiment [17].

B1: 5C9 IgG (antibody, from another filing, V domains shown)
VH: EVQLVESGGGLIQPGGSLRLSCAASGFTVSSNYMSWVRQAPGKGLEWVSVTYSGGSTSYADSVKGRFTISRDNSKNTLYLQMNSLRAEDTAVYYCARGGRYCSSISCYARSGCDYWGQGTLVTVSS
VL: AIQMTQSPSSLSASVGDRVTITCRASQSISNYLNWYQQKPGKAPKLLIYAASSLQSGVPSRFSGSGSGTDFTLTISSLQPEDFATYYCQQSYSSPSTTFGQGTKLEIK
Regarding B1, the Inhibition of binding (%) in [18] is -8%; in experiment [19] it was 76.7%; in experiment [20], 0.6%; in experiment [21] it was -2.6%; in experiment [22], 49.8%; in experiment [24], 24.4%. Besides, the Inhibition of binding (%) in experiment [25] worked out at 28.5%; in [26], 65.9%. In experiment [23], the % inhibition of TSH-biotin binding came out at 63.9%.

Values taken from patent US20110300138A1 (published 2011).
